± gives the uncertainty stated by the source.
Experiment: self-splicing fitness, log relative to wild type (ln ratio); higher = more splicing; Tetrahymena group I intron in knt gene, E. coli kanamycin selection, DiMSum; sequences stand for … in CUCUCU…GGAGGGAAAAGUUAUCAGGCAUGCACCUGGUAGCUAGUCUUUAAACCAAUAGAUUGCAUCGGUUUAAAAGGCAAGACCGUCAAAUUGCGGGAAAGGGGUCAACAGCCGUUCAGUACCAAGUCUCAGGGGAAACUUUGAGAUGGCCUUGCAAAGGGUAUGGUAAUAAGCUGACGGACAUGGUCCUAACCACGCAGCCAAGUCCUAAGUCAACAGAUCUUCUGUUGAUAUGGAUGCAGUUCACAGACUAAAUGUCGGUCGGGGAAGAUGUAUUCUUCUCAUAAGAUAUAGUCGGACCUCUCCUUAAUGGGAGCUAGCGGAUGAAGUGAUGCAACACUGGAGCCGCUGGGAACUAAUUUGUAUGCGAAAGUAUAUUGAUUAGUUUUGGAGUACUCGUGGUCG
Method in brief: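 Pooled colonies went to amplicon sequencing on an Illumina HiSeq 2500 after six replicate transformations. The plates were LB agar with 100 μg/mL carbenicillin, 50 μM IPTG and 0.2% rhamnose, with or without 25 μg/mL kanamycin, incubated overnight at 37°C or 30°C. The E. coli BL21(DE3) library had all eight P1ex-region intron nucleotides randomised, the intron placed in the knt kanamycin-resistance gene on pET-22b(+). DiMSum fitness is the error-weighted combination of replicate fold changes, kanamycin against none, normalised to wild type.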

Sequence	self-splicing fitness (ln) (30 °C)	self-splicing fitness (ln) (37 °C)
AUUCAGCAAUAUUACGUUCU	-0.926 ± 0.074	-0.163 ± 0.1
AUUCAGCAAUAUUACGUUGU	-3.14 ± 0.15	-2.3 ± 0.21
AUUCAGCAAUAUUACGUUUA	-1.18 ± 0.12	-0.911 ± 0.11
AUUGAGCAAUAUUACGAAAC	-2.48 ± 0.45	
AUUGAGCAAUAUUACGAACU	-1.9 ± 0.23	-0.643 ± 0.2
AUUGAGCAAUAUUACGACAU	-0.372 ± 0.013	-0.153 ± 0.033
AUUGAGCAAUAUUACGACGG	-4.09 ± 0.31	-3.4 ± 0.26
AUUGAGCAAUAUUACGAGAA	-2.35 ± 0.45	-2.62 ± 0.26
AUUGAGCAAUAUUACGAUAA		-2.14 ± 0.4
AUUGAGCAAUAUUACGAUAG	-4.02 ± 0.28	-3.03 ± 0.3
AUUGAGCAAUAUUACGCGCG	-3.04 ± 0.21	-2.22 ± 0.16
AUUGAGCAAUAUUACGCUGA	-3.1 ± 0.36	-2.27 ± 0.29
AUUGAGCAAUAUUACGGGAA	-3.22 ± 0.37	-3.86 ± 0.46
AUUGAGCAAUAUUACGGGGU	-3.33 ± 0.25	-3.44 ± 0.27
AUUGAGCAAUAUUACGGUUU	-3.23 ± 0.21	-2.16 ± 0.22
AUUGAGCAAUAUUACGUAUG	-3.63 ± 0.46	
AUUGAGCAAUAUUACGUGAA	-2.5 ± 0.15	-1.74 ± 0.27
AUUGAGCAAUAUUACGUGCA	-2.91 ± 0.15	-1.85 ± 0.14
AUUGAGCAAUAUUACGUGGA	-2.87 ± 0.26	-1.61 ± 0.21
AUUGAGCAAUAUUACGUUCA	-1.59 ± 0.17	-0.11 ± 0.17
AUUGAGCAAUAUUACGUUUC		-2.57 ± 0.48
AUUUAGCAAUAUUACGAAAU	-2 ± 0.31	-1.54 ± 0.27
AUUUAGCAAUAUUACGAGAG		-2.7 ± 0.3
AUUUAGCAAUAUUACGAUGU	-1.08 ± 0.096	0.369 ± 0.11
AUUUAGCAAUAUUACGCCUA	-1.24 ± 0.2	0.0334 ± 0.19
AUUUAGCAAUAUUACGCGAU	-3.22 ± 0.33	-2.49 ± 0.48

Sequence	self-splicing fitness (ln) (30 °C)	self-splicing fitness (ln) (37 °C)
AUUUAGCAAUAUUACGCGCA	-0.312 ± 0.13	-0.00399 ± 0.16
AUUUAGCAAUAUUACGCGUU	-2.01 ± 0.2	-1.3 ± 0.19
AUUUAGCAAUAUUACGGCAA	-1.05 ± 0.16	-0.726 ± 0.17
AUUUAGCAAUAUUACGGCGU	-0.211 ± 0.11	0.269 ± 0.13
AUUUAGCAAUAUUACGUAAU	-0.35 ± 0.082	-0.32 ± 0.12
AUUUAGCAAUAUUACGUCCC	-0.0323 ± 0.37	-0.682 ± 0.42
AUUUAGCAAUAUUACGUGGA	-3.25 ± 0.21	-2.04 ± 0.16
AUUUAGCAAUAUUACGUUGA	-1.32 ± 0.2	-2.27 ± 0.26
CAAAAGCAAUAUUACGAAAC	-4.17 ± 0.39	-3.75 ± 0.33
CAAAAGCAAUAUUACGAAUG	-1.18 ± 0.057	-0.723 ± 0.076
CAAAAGCAAUAUUACGAGAC	-3.62 ± 0.39	-2.36 ± 0.21
CAAAAGCAAUAUUACGAGCA	-2.5 ± 0.14	-1.97 ± 0.14
CAAAAGCAAUAUUACGAUUU	-1.18 ± 0.061	-0.732 ± 0.075
CAAAAGCAAUAUUACGCAAA	-2.48 ± 0.14	-1.76 ± 0.17
CAAAAGCAAUAUUACGCAUG	-3.93 ± 0.19	-0.824 ± 0.15
CAAAAGCAAUAUUACGCCCU	-2.13 ± 0.17	-0.434 ± 0.17
CAAAAGCAAUAUUACGCGAU	-4 ± 0.3	-1.78 ± 0.23
CAAAAGCAAUAUUACGCGUU	-3.91 ± 0.17	-2.74 ± 0.13
CAAAAGCAAUAUUACGCUGG	-2.88 ± 0.19	-1.9 ± 0.17
CAAAAGCAAUAUUACGGCUC	-1.56 ± 0.12	0.0316 ± 0.14
CAAAAGCAAUAUUACGGGCA	-2.88 ± 0.16	-1.99 ± 0.14
CAAAAGCAAUAUUACGGGCU	-3.65 ± 0.23	-2.57 ± 0.21
CAAAAGCAAUAUUACGUAGC	-3.1 ± 0.13	-2.61 ± 0.24
CAAAAGCAAUAUUACGUAUG	-2.89 ± 0.098	-2.22 ± 0.13
CAAAAGCAAUAUUACGUCAA	-3.34 ± 0.11	-2.86 ± 0.12
CAAAAGCAAUAUUACGUCCA	-1.7 ± 0.18	-2.05 ± 0.16

Sequence	self-splicing fitness (ln) (30 °C)	self-splicing fitness (ln) (37 °C)
CAAAAGCAAUAUUACGUCCC	-2.65 ± 0.26	-2.26 ± 0.42
CAAAAGCAAUAUUACGUCGU	-3.83 ± 0.12	-1.54 ± 0.1
CAAAAGCAAUAUUACGUGAU	-3.62 ± 0.11	-2.41 ± 0.12
CAAAAGCAAUAUUACGUGCA	-2.95 ± 0.12	-1.96 ± 0.12
CAAAAGCAAUAUUACGUGGA	-3.4 ± 0.14	-2 ± 0.096
CAAAAGCAAUAUUACGUGUG	-2.48 ± 0.055	-1.09 ± 0.059
CAAAAGCAAUAUUACGUUGA	-3.14 ± 0.14	-2.32 ± 0.12
CAACAGCAAUAUUACGACUG	-0.232 ± 0.052	0.0876 ± 0.072
CAACAGCAAUAUUACGAUAU	-4 ± 0.15	-2.2 ± 0.13
CAACAGCAAUAUUACGAUGA	-1.53 ± 0.12	-0.678 ± 0.089
CAACAGCAAUAUUACGAUUU	-0.837 ± 0.067	-0.69 ± 0.083
CAACAGCAAUAUUACGCAAA	-3.57 ± 0.33	-2.37 ± 0.14
CAACAGCAAUAUUACGCAGC	-4.4 ± 0.25	-2.75 ± 0.29
CAACAGCAAUAUUACGCCAA	-2.36 ± 0.14	-1.62 ± 0.14
CAACAGCAAUAUUACGCCCA	-0.825 ± 0.097	-1.04 ± 0.1
CAACAGCAAUAUUACGCCGU	-4.14 ± 0.29	-2.82 ± 0.38
CAACAGCAAUAUUACGCGGU	-2.36 ± 0.12	-2.88 ± 0.28
CAACAGCAAUAUUACGCUUC	-3.83 ± 0.24	-2.18 ± 0.2
CAACAGCAAUAUUACGGACU	-2.52 ± 0.11	-1.33 ± 0.14
CAACAGCAAUAUUACGGAUC	-3.08 ± 0.12	-1.89 ± 0.12
CAACAGCAAUAUUACGGCCU	-3.63 ± 0.16	-1.3 ± 0.12
CAACAGCAAUAUUACGGCUU	-1.88 ± 0.082	-0.875 ± 0.087
CAACAGCAAUAUUACGGGCA	-2.61 ± 0.1	-1.9 ± 0.12
CAACAGCAAUAUUACGGGCU	-3.65 ± 0.13	-2.66 ± 0.14
CAACAGCAAUAUUACGUCAA	-3.49 ± 0.13	-2.08 ± 0.1
